The record followed here is article PMC3637500.

To fix the notation:
B1: Myc-tagged full-length Gab1 (wild type) [mouse] / GST-PTP1B-D181A (substrate-trapping mutant of PTP1B, GST fusion protein) [mouse] (parent)
chain 1: MSGGEVVCSGWLRKSPPEKKLKRYAWKRRWFVLRSGRLTGDPDVLEYYKNDHAKKPIRIIDLNLCQQVDAGLTFNKKEFENSYIFDINTIDRIFYLVADSEEDMNKWVRCICDICGFNPTEEDPVKPLTGSSQAPVDSPFAISTAPASSQMEASSVALPPPYQVISLPPHPDTLGLQDDPQDYLLLINCQSKKPEPNRTLFDSAKPTFSETDCNDNVPSHQTPASSQSKHGMNGFFQQQMMYDCPPSRLTSVSGESSLYNLPRSYSHDVLPKESPSSTEADGELYTFNTPSGTAGVETQMRHVSISYDIPPTPGNTYQIPRTFPESTLGQSSKLDTIPDIPPPRPPKPHPTHDRSPVETCGVPRTASDTDSSYCIPPPAGMTPSRSNTISTVDLNKLRKDASSQDCYDIPRTFPSDRSSSLEGFHSQYKIKSVLTAGGVSGEELDENYVPMNPNSPPRQHSGSFTEPIQEPNYVPMTPGTFDFSSFGMQVPPPAHMGFRSSPKTPPRRPVPVADCEPPPVDRNLKPDRKVKPAPLDIKPLSEWEELQAPVRSPITRSFARDSSRFPMSPRPDSVHSTTSSSDSHDSEENYVPMNPNLSGEDPNLFASNSLDGGSSPMNKPKGDKQVEYLDLDLDSGKSTPPRKQKSSGSGSSMADERVDYVVVDQQKTLALKSTREAWTDGRQSTESETPTKNVK
chain 2: MEMEKEFEEIDKAGNWAAIYQDIRHEASDFPCKVAKLPKNKNRNRYRDVSPFDHSRIKLHQEDNDYINASLIKMEEAQRSYILTQGPLPNTCGHFWEMVWEQKSRGVVMLNRIMEKGSLKCAQYWPQQEEKEMVFDDTGLKLTLISEDVKSYYTVRQLELENLTTKETREILHFHYTTWPAFGVPESPASFLNFLFKVRESGSLSLEHGPIVVHCSAGIGRSGTFCLADTCLLLMDKRKDPSSVDIKKVLLEMRRFRMGLIQTADQLRFSYLAVIEGAKFIMGDSSVQDQWKELSREDLDLPPEHVPPPPRPPKRTLEPHNGKCKELFSSHQWVSEETCGDEDSLAREEGRAQSSAMHSVSSMSPDTEVRRRMVGGGLQSAQASVPTEEELSSTEEEHKAHWPSHWKPFLVNVCMATLLATGAYLCYRVCFH

Variants of B1 are the subject of this test. The test can be described thus: GST pull-down, anti-Myc immunoblot densitometry. Particulars: with GST-PTP1B-D181A (substrate-trapping mutant of PTP1B, GST fusion protein) [mouse]; Gab1 expressed in HEK-293 T cells, pervanadate treatment; normalized to lysate loading control; parent: 100; read off a plot. On the technique in general: Immunoblotting shows a protein as a band on a membrane.
Turning to chain 1 Y448F, the percent of parent is 170%.

Take chain 1 Y660F: the percent of parent is 150%. For chain 1 Y373F, the percent of parent was determined as 200%. As for chain 1 Y590F, the figure is 310%; as for chain 1 Y628F, 240%; as for chain 1 Y285F, 180%.

For the variant chain 1 Y473F, the percent of parent amounted to 270%.

Turning to chain 1 Y407F, the percent of parent came to 160%.
